Test results published in patent US20180086837A1 (Ablynx, published 2018).
Several values for one entry are separate records, joined by “and”; a condition that tells them apart may be missing. Equal values may be shown once.

Tests used:
[1] = target: T1, human CXCR4 (human, UniProt P61073 1-352); test: [125I]-SDF-1 displacement, HEK293-CXCR4 membrane extracts
T1 construct: also called hCXCR4

[2] = target: T1, human CXCR4; test: cell-based or functional assay
[3] = target: T1, human CXCR4; test: inhibition of 12G5 (competitor, 10 nM PE-labelled) binding, Jurkat cells
[4] = target: T1, human CXCR4; test: flow cytometry, MOLM-13 cells (CXCR4+/CD4+)
[5] = target: T1, human CXCR4; test: cell-based or functional assay; remark: listed apart in the source
[6] = target: T1, human CXCR4; test: cell-based or functional assay; remark: listed apart in the source
[7] = target: T1, human CXCR4; test: cell-based or functional assay; remark: listed apart in the source
[8] = target: T1, human CXCR4; test: cell-based or functional assay; remark: listed apart in the source
[9] = target: T1, human CXCR4; test: cell-based or functional assay; remark: listed apart in the source
[10] = target: T1, human CXCR4; test: cell-based or functional assay; remark: listed apart in the source
[11] = target: T1, human CXCR4; test: cell-based or functional assay; remark: listed apart in the source
[12] = target: T1, human CXCR4; test: [125I]-SDF-1 displacement, HEK293-CXCR4 membrane extracts, n = 3
[13] = target: T1, human CXCR4; test: inhibition of 12G5 (competitor, 10 nM PE-labelled) binding, THP-1 cells
[14] = target: T1, human CXCR4; test: cell-based or functional assay; remark: listed apart in the source
[15] = target: T1, human CXCR4; test: SDF-1^AF647 displacement, SUPT-1 cells, flow cytometry, n = 3
[16] = target: T1, human CXCR4; test: flow cytometry, THP-1 cells (double-positive)
[17] = target: T1, human CXCR4; test: cell-based or functional assay; remark: listed apart in the source
[18] = target: T1, human CXCR4; test: flow cytometry, Jurkat E6-1 cells (CXCR4+/CD4low)
[19] = target: T1, human CXCR4; test: competition with 12G5 (competitor, 1 nM), Jurkat cells, flow cytometry
[20] = target: T1, human CXCR4; test: inhibition of 12G5 (competitor, 10 nM PE-labelled) binding, SUPT-1 cells
[21] = target: T2, human CD4 expressed on cells (human, UniProt P01730 26-458); test: flow cytometry, THP-1 cells, anti-flag detection
T2 construct: Endogenous CD4 on Jurkat, THP-1, MOLM-13, primary T cells, MT-4, PBMC, SupT1, or transfected (U87, TZM-bl); also called T-cell surface glycoprotein CD4

[22] = target: T2, human CD4 expressed on cells; test: flow cytometry, MOLM-13 cells (CXCR4+/CD4+)
[23] = target: T2, human CD4 expressed on cells; test: cell-based or functional assay
[24] = target: T2, human CD4 expressed on cells; test: cell-based or functional assay; remark: listed apart in the source
[25] = target: T2, human CD4 expressed on cells; test: cell-based or functional assay; remark: listed apart in the source
[26] = target: T2, human CD4 expressed on cells; test: flow cytometry, MOLM-13 cells, anti-flag detection
[27] = target: T2, human CD4 expressed on cells; test: flow cytometry, primary human T cells, anti-flag detection
[28] = target: T2, human CD4 expressed on cells; test: cell-based or functional assay; remark: listed apart in the source
[29] = target: T2, human CD4 expressed on cells; test: cell-based or functional assay; remark: listed apart in the source
[30] = target: T2, human CD4 expressed on cells; test: flow cytometry, THP-1 cells
[31] = target: T2, human CD4 expressed on cells; test: cell-based or functional assay; remark: listed apart in the source
[32] = target: T2, human CD4 expressed on cells; test: cell-based or functional assay; remark: listed apart in the source
[33] = target: T2, human CD4 expressed on cells; test: flow cytometry, Jurkat cells
[34] = target: T3, cynomolgus CD4 (cynomolgus, UniProt P79185 26-458); test: flow cytometry on the cynomolgus CD4+ T cell line HSC-F, anti-Flag + goat anti-mouse-PE
T3 construct: whole, on cells; also called cyno CD4
T3 sequence (P79185 26-458): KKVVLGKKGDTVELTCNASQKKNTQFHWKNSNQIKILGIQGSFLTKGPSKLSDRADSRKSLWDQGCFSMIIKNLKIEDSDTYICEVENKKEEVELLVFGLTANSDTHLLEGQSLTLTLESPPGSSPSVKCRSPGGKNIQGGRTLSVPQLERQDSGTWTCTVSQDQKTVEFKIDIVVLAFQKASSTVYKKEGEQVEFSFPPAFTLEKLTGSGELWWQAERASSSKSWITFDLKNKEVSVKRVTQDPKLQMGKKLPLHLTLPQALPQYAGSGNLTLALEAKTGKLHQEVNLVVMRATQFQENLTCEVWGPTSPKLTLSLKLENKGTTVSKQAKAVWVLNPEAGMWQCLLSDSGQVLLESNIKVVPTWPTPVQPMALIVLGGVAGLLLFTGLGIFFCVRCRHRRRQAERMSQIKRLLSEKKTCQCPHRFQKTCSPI

[35] = target: T2, human CD4 expressed on cells; test: cell-based or functional assay; remark: listed apart in the source
[36] = target: T2, human CD4 expressed on cells; test: flow cytometry, Jurkat E6-1 cells (CXCR4+/CD4low); Jurkat E6-1 cells (CXCR4+/CD4low), average of 3 experiments
[37] = target: T1, human CXCR4; test: ELISA on coated hCXCR4 lipoparticles versus null lipoparticles, anti-c-myc + anti-mouse-HRP

T1 sequence (P61073 whole entry): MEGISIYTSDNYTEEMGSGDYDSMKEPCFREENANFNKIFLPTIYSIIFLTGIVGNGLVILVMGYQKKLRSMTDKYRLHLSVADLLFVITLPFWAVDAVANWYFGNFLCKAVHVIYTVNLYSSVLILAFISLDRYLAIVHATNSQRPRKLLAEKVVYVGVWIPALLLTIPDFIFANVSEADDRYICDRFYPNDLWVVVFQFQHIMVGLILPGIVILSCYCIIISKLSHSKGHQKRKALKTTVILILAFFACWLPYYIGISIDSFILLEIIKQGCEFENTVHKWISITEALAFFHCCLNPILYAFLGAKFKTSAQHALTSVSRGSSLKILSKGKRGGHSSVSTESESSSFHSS

B1: Nanobody 281F12 (VHH)
VHH: EVQLVESGGGLVQAGDSLRLSCAASGRAFSRYAMGWFRQAPGKEREFVAAIGWGPSKTNYADSVKGRFTISRDNAKNTVYLQMNTLKPEDTAVYSCAAKFVNTDSTWSRSEMYTYWGQGTQVTVSS
notes: also called CXCR4 281F12; anti-CXCR4 Nanobody 281F12; not shown: C-terminal c-myc-His6 tag (E. coli) or FLAG3-His6 tag (Pichia)
Ki [1]: 27 nM and 26 nM
IC50, inhibition of SDF-1a-mediated chemotaxis, Jurkat E6-1 cells [2]: 84.2 nM
IC50, inhibition of SDF-1a-mediated chemotaxis, MOLM-13 cells [2]: 86 nM
IC50 [3]: 13.7 nM
EC50 [4]: 5.2 nM
IC50, syncytia formation, SupT1 + HUT-78/IIIb [5]: 1800 nM
IC50, syncytia formation, SupT1 + HUT-78/NL4.3 [5]: 3600 nM
IC50, MT-4, HE (R5/X4) [6]: 10 nM
IC50, MT-4, HIV-2 ROD (R5/X4) [6]: 86.7 nM
IC50, MT-4, NL4.3 (X4) [6]: 22.7 nM
IC50, PBMC, BaL (R5) [6]: > 1700 nM
IC50, PBMC, DJ259 (R5) [6]: > 1700 nM
IC50, PBMC, HE (R5/X4) [6]: 350 nM
IC50, PBMC, NL4.3 (X4) [6]: 47 nM
IC50, MT-4, NL4.3 2G12 res. [7]: 17.3 nM
IC50, MT-4, NL4.3 3F11 res. [7]: 87.3 nM
IC50, MT-4, NL4.3 281F12 res. [7]: 2330 nM
IC50, MT-4, NL4.3 AMD-3100 res. [7]: > 1700 nM
IC50, MT-4, NL4.3 CXCL-12 res. [7]: 220 nM
IC50, MT-4, NL4.3 wt [7]: 22.7 nM
IC50, PBMC, NL4.3 3F11 res. [7]: 120 nM
IC50, PBMC, NL4.3 281F12 res. [7]: 310 nM
IC50, PBMC, NL4.3 WT [7]: 28 nM
IC50, HIV-1 CM237 (clade B) infectivity in PBMC [8]: 16 nM
IC50, HIV-1 NL4.3 (X4) infectivity in PBMC [8]: 14 nM
IC50, HIV-1 UG270 (clade D) infectivity in PBMC [8]: 12 nM
IC90, HIV-1 CM237 (clade B) infectivity in PBMC [8]: 49 nM
IC90, HIV-1 NL4.3 (X4) infectivity in PBMC [8]: 57 nM
IC90, HIV-1 UG270 (clade D) infectivity in PBMC [8]: 2.4 nM
IC50, HIV1 infectivity, X4 NL4.3 in MT-4 cells [9]: 59.4 nM
IC50, SDF-1 induced Ca2+ signaling, U87-CD4-CXCR4 cells [10]: 66.7 nM
IC50, dual-tropic R5/X4 HIV-1 HE in PBMCs [11]: 267 nM
average IC50, HIV-1 NL4.3 replication in MT-4 cells [11]: 0.34 µg/mL
pKi [12]: 7.57
IC50 [13]: 49.3 nM
IC50, MT-4 + NL4.3 (X4) [14]: 22.9 nM
IC50, PBMC + BaL (R5) [14]: > 1670 nM
IC50, PBMC + NL4.3 (X4) [14]: 27.7 nM
IC50, U87 + NL4.3 (X4) [14]: > 6670 nM
IC50 [15]: 6.3 nM
EC50 [16]: 3.1 nM
IC50, TZM-bl, DJ259 (R5) [17]: > 6700 nM
IC50, TZM-bl, NL4.3 3F11 res [17]: 45.6 nM
IC50, TZM-bl, NL4.3 281F12 res [17]: 366 nM
IC50, TZM-bl, NL4.3 WT (X4) [17]: 23.5 nM
IC50, TZM-bl, SM145 (R5) [17]: > 6700 nM
EC50 [18]: 7 nM
IC50 [19]: 13 nM
IC50 [20]: 51.3 nM

B2: Nanobody 03F11 (VHH)
VHH: EVQLVESGGGSVQPGGSLTLSCGTSGRTFNVMGWFRQAPGKEREFVAAVRWSSTGIYYTQYADSVKSRFTISRDNAKNTVYLEMNSLKPEDTAVYYCAADTYNSNPARWDGYDFRGQGTQVTVSS
notes: Monovalent anti-human CD4 Nanobody; also called CD4 3F11; anti-CD4 Nanobody 3F11; not shown: C-terminal myc-His6 tag (E. coli) or FLAG3-His6 tag (Pichia)
EC50 [21]: 1 nM
EC50 [22]: 0.7 nM
IC50, syncytia formation, SupT1 + HUT-78/IIIb [23]: 4600 nM
IC50, syncytia formation, SupT1 + HUT-78/NL4.3 [23]: 2800 nM
IC50, MT-4, HE (R5/X4) [24]: 10 nM
IC50, MT-4, HIV-2 ROD (R5/X4) [24]: 22.7 nM
IC50, MT-4, NL4.3 (X4) [24]: 34.7 nM
IC50, PBMC, BaL (R5) [24]: 610 nM
IC50, PBMC, DJ259 (R5) [24]: 31 nM
IC50, PBMC, HE (R5/X4) [24]: > 1700 nM
IC50, PBMC, NL4.3 (X4) [24]: 500 nM
IC50, PBMC, SM145 (R5) [24]: 27 nM
IC50, MT-4, NL4.3 2G12 res. [25]: 23.3 nM
IC50, MT-4, NL4.3 3F11 res. [25]: > 6700 nM
IC50, MT-4, NL4.3 281F12 res. [25]: > 6700 nM
IC50, MT-4, NL4.3 AMD-3100 res. [25]: 22.7 nM
IC50, MT-4, NL4.3 CXCL-12 res. [25]: 153 nM
IC50, MT-4, NL4.3 wt [25]: 34.7 nM
IC50, PBMC, NL4.3 3F11 res. [25]: > 6700 nM
IC50, PBMC, NL4.3 281F12 res. [25]: > 6700 nM
IC50, PBMC, NL4.3 WT [25]: 500 nM
EC50 [26]: 0.6 nM
EC50 [27]: 0.76 nM
IC50, HIV1 infectivity, X4 NL4.3 in MT-4 cells [28]: 60.7 nM
IC50, X4 HIV-1 NL4.3 replication in MT-4 cells [29]: 0.52 µg/mL
EC50 [30]: 0.5 nM
IC50, MT-4 + NL4.3 (X4) [31]: 35.3 nM
IC50, PBMC + BaL (R5) [31]: 610 nM
IC50, PBMC + NL4.3 (X4) [31]: 580 nM
IC50, U87 + NL4.3 (X4) [31]: > 1330 nM
IC50, TZM-bl, DJ259 (R5) [32]: 169 nM
IC50, TZM-bl, NL4.3 3F11 res [32]: > 6700 nM
IC50, TZM-bl, NL4.3 281F12 res [32]: > 6700 nM
IC50, TZM-bl, NL4.3 WT (X4) [32]: 131 nM
IC50, TZM-bl, SM145 (R5) [32]: 8.33 nM
EC50 [33]: 1.1 nM
binding result [34]: binds
IC50, HIV-1 neutralization, MT-4 + NL4.3 [35]: 34.7 nM
EC50 [36]: 1.4 nM
binding result [37]: no binding (tested: 100 nM)
